# Laboratory results taken from patent US20250019457A1 (IBIO, published 2025).
# Where two headings read alike, the source gives them in different places.
# T1: mouse TROP2 (purified recombinant antigen, Acro Biosystems Cat #TR2-M52H6) (mouse, UniProt Q8BGV3 25-270)
# T1 construct: Bought recombinant protein; also called msTROP2
# T1 sequence: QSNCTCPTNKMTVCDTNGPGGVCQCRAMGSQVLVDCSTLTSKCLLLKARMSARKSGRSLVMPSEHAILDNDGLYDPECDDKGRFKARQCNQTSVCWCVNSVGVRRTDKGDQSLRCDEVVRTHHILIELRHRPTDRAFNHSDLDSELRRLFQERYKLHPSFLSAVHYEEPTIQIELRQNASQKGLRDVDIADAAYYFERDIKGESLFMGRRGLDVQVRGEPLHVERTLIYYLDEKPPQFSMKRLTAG
# T2: human EpCAM (purified recombinant antigen, Acro Biosystems Cat #EPM-H5223) (human, UniProt P16422 24-265)
# T2 construct: Bought recombinant protein
# T2 sequence: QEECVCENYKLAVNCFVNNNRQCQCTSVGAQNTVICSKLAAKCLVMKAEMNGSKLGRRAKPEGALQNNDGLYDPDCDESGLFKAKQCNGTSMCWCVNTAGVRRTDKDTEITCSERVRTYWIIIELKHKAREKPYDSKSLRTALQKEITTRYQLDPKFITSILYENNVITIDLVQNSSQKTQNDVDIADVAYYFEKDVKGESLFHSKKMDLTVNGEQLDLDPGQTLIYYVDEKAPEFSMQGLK
# T3: human Trop2 on cells (FaDu cells, endogenous; ExpiCHO cells overexpressing human Trop2) (human, UniProt P09758 27-323)
# T3 construct: Cell-surface form
# T3 sequence: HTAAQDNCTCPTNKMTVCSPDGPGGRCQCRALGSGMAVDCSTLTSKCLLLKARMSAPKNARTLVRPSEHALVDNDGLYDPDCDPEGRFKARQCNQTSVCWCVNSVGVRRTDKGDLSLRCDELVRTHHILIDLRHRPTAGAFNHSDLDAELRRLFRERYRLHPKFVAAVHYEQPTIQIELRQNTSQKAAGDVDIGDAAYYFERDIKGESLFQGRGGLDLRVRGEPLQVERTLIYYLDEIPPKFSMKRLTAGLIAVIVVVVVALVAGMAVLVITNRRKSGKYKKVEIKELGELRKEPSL
# T4: human TROP2 (purified recombinant antigen, Acro Biosystems Cat #TR2-H5223) (human, UniProt P09758 27-274)
# T4 construct: Bought recombinant protein; also called huTROP2
# T4 sequence: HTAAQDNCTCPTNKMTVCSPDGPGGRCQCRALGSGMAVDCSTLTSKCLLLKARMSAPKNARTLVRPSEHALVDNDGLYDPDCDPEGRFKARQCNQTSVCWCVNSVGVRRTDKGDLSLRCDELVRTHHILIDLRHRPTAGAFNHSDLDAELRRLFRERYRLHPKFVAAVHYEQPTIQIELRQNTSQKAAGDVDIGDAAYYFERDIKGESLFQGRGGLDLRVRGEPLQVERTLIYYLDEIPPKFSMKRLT
# T5: cynomolgus/rhesus TROP2 (purified recombinant antigen, Acro Biosystems Cat #TR2-R52H3) (cynomolgus/rhesus, UniProt P09758 27-274 (human entry))
# T5 construct: Bought recombinant protein; also called cyTROP2; cyno/rhesus TROP2
# T5 chain: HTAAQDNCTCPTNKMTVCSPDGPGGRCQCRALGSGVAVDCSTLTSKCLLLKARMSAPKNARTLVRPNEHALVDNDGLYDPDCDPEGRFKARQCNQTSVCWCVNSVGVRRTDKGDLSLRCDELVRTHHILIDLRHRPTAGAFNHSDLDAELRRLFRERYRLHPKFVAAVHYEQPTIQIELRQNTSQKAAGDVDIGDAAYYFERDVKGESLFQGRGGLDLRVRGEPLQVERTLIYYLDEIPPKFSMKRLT
# Assays:
# [1] = molecular target: T1, mouse TROP2 (purified recombinant …); assay: SPR, Carterra LSA; ratio of KD values, reference huTROP2
# [2] = molecular target: T2, human EpCAM (purified recombinant …); assay: SPR, Carterra LSA; antibody captured on anti-human IgG, antigen injected
# [3] = molecular target: T3, human Trop2 on cells (FaDu cells, …); assay: flow cytometry on FaDu cells (endogenous human Trop2); average of n=1-3 experiments
# [4] = molecular target: T4, human TROP2 (purified recombinant …); assay: SPR, Carterra LSA; antibody captured on anti-human IgG, antigen injected; 1:1 fit
# [5] = molecular target: T5, cynomolgus/rhesus TROP2 (purified …); assay: as above
# [6] = molecular target: T4, human TROP2 (purified recombinant …); assay: as above; remark: listed apart in the source
# [7] = molecular target: T1, mouse TROP2 (purified recombinant …); assay: as above
# [8] = molecular target: T4, human TROP2 (purified recombinant …); assay: SPR (Carterra LSA), antibody captured through human Fc, huTROP2 as analyte; KD plotted for each VH/VL combination
binder,measurement,setting,value
"SD-394517 (antibody, V domains shown, Chicken/human chimera) VH: AVTLDESGGGLQTPGGALSLVCKGSGFTFSSYAMGWVRQAPGKGLEYVAAISSGSSTGYGAAVKGRATISRDTGQSTVRLQLNNLRAEDTATYYCAKSGYGGSASYVSDIDAWGHGTEVIVSS VL: ALALTQPSSVSANPGETVEITCSGGGDYYGTYYYGWYQQKAPGSAPVTVIYDNTKRPSNIPSRFSGSTSGSTNTLTITGVQADDEAVYYCGSYDSSAGIFGAGTTLTVL",Fold difference in affinity (huTROP2:msTROP2),[1],1.5 fold
same,binding result,[2],no binding (tested: 1 µM top concentration)
same,EC50,[3],2.04 nM
same,Kd,[4],0.76 nM
same,koff,[4],0.000303 s⁻¹
same,kon,[4],396000 M⁻¹ s⁻¹
same,Kd,[5],0.92 nM
same,Kd,[6],0.76 nM
same,Kd,[7],1.18 nM
"SD-457798 (antibody, V domains shown, Chicken/human chimera) VH: AVTLDESGGGLQTPGGALSLVCKGSGFTFSSYAMGWVRQAPGKGLEYVAAISSGSSTGYGAAVKGRATISKDTGQSTVRLQLNNLRAEDTATYYCAKSGYGGSASYVSDIDAWGHGTEVIVSS VL: ALALTQPSSVSANPGETVEITCSGGGDYYGTYYYGWYQQKAPGSAPVTVIYDNTKRPSNIPSRFSGSTSGSTNTLTITGVQADDEAIYFCGSYKSNTFGAGTTLTVL",Fold difference in affinity (huTROP2:msTROP2),[1],0.5 fold
same,binding result,[2],no binding (tested: 1 µM top concentration)
same,EC50,[3],1.06 nM
same,Kd,[4],0.64 nM
same,koff,[4],0.000259 s⁻¹
same,kon,[4],403000 M⁻¹ s⁻¹
same,Kd,[5],0.96 nM
same,Kd,[6],0.64 nM
same,Kd,[7],0.34 nM
"589-VH_2 + 589-VL_1 (antibody, V domains shown) VH: QVQLLESGGGLVKPGGSLRLSCAASGFDFIDYDMFWIRQAPGKGLEWVGVINRSGSYTNYAPAVKGRATISRDNAKNSMYLQMNSLRAEDTAVYYCARGACTHCWDADSAGYIDAWGQGTLVTVSS VL: SYELTQPPSVSVSPGQTASITCSGSSGSYGWYQQKPGQSPVLVIYSSDKRPSGIPERFSGSNSGNTATLTISGTQAMDEADYYCGGYDGSTDVGIFGGGTKLTVL",binding result,[8],binds
"589-VH_2 + 589-VL_4 (antibody, V domains shown) VH: QVQLLESGGGLVKPGGSLRLSCAASGFDFIDYDMFWIRQAPGKGLEWVGVINRSGSYTNYAPAVKGRATISRDNAKNSMYLQMNSLRAEDTAVYYCARGACTHCWDADSAGYIDAWGQGTLVTVSS VL: ALALTQPSSVSANPGGTVKITCSGSSGSYGWHQQKSPGSAPVTVIYSSDKRPSDIPSRFSGALSGSTATLTITGVRAEDEAVYYCGGYDGSTDVGIFGAGTTLTVL",binding result,[8],binds
"589-VH_5 + 589-VL_1 (antibody, V domains shown, parental VH with humanized VL) VH: AVTLDESGGGLQTPGGGLSLVCKASGFDFIDYDMFWVRQAPGKGLEWVGVINRSGSYTNYAPAVKGRATISRDNGQSTMRLQLNNLRAEDTGTYYCARGACTHCWDADSAGYIDAWGHGTEVIVSS VL: SYELTQPPSVSVSPGQTASITCSGSSGSYGWYQQKPGQSPVLVIYSSDKRPSGIPERFSGSNSGNTATLTISGTQAMDEADYYCGGYDGSTDVGIFGGGTKLTVL",binding result,[8],binds
"589-VH_3 + 589-VL_4 (antibody, V domains shown) VH: not shown VL: ALALTQPSSVSANPGGTVKITCSGSSGSYGWHQQKSPGSAPVTVIYSSDKRPSDIPSRFSGALSGSTATLTITGVRAEDEAVYYCGGYDGSTDVGIFGAGTTLTVL",binding result,[8],binds
"589-VH_1 + 589-VL_4 (antibody, V domains shown) VH: QVQLLESGGGLVKPGGSLRLSCAASGFTFSDYDMFWIRQAPGKGLEWVSVINRSGSYTNYAPAVKGRFTISRDNAKNSLYLQMNSLRAEDTAVYYCARGACTHCWDADSAGYIDAWGQGTLVTVSS VL: ALALTQPSSVSANPGGTVKITCSGSSGSYGWHQQKSPGSAPVTVIYSSDKRPSDIPSRFSGALSGSTATLTITGVRAEDEAVYYCGGYDGSTDVGIFGAGTTLTVL",binding result,[8],binds
"589-VH_3 + 589-VL_1 (antibody, V domains shown) VH: not shown VL: SYELTQPPSVSVSPGQTASITCSGSSGSYGWYQQKPGQSPVLVIYSSDKRPSGIPERFSGSNSGNTATLTISGTQAMDEADYYCGGYDGSTDVGIFGGGTKLTVL",binding result,[8],binds
"589-VH_3 + 589-VL_2 (antibody, V domains shown) VH: not shown VL: SLELTQPPSVSVSPGQTASITCSGSSGSYGWHQQKPGQSPVTVIYSSDKRPSGIPERFSGSSSGSTATLTISGTQAMDEADYYCGGYDGSTDVGIFGGGTKLTVL",binding result,[8],binds
"589-VH_1 + 589-VL_1 (antibody, V domains shown) VH: QVQLLESGGGLVKPGGSLRLSCAASGFTFSDYDMFWIRQAPGKGLEWVSVINRSGSYTNYAPAVKGRFTISRDNAKNSLYLQMNSLRAEDTAVYYCARGACTHCWDADSAGYIDAWGQGTLVTVSS VL: SYELTQPPSVSVSPGQTASITCSGSSGSYGWYQQKPGQSPVLVIYSSDKRPSGIPERFSGSNSGNTATLTISGTQAMDEADYYCGGYDGSTDVGIFGGGTKLTVL",binding result,[8],binds
"589-VH_5 + 589-VL_2 (antibody, V domains shown, parental VH with humanized VL) VH: AVTLDESGGGLQTPGGGLSLVCKASGFDFIDYDMFWVRQAPGKGLEWVGVINRSGSYTNYAPAVKGRATISRDNGQSTMRLQLNNLRAEDTGTYYCARGACTHCWDADSAGYIDAWGHGTEVIVSS VL: SLELTQPPSVSVSPGQTASITCSGSSGSYGWHQQKPGQSPVTVIYSSDKRPSGIPERFSGSSSGSTATLTISGTQAMDEADYYCGGYDGSTDVGIFGGGTKLTVL",binding result,[8],binds
"589-VH_2 + 589-VL_2 (antibody, V domains shown, also called SD-861408) VH: QVQLLESGGGLVKPGGSLRLSCAASGFDFIDYDMFWIRQAPGKGLEWVGVINRSGSYTNYAPAVKGRATISRDNAKNSMYLQMNSLRAEDTAVYYCARGACTHCWDADSAGYIDAWGQGTLVTVSS VL: SLELTQPPSVSVSPGQTASITCSGSSGSYGWHQQKPGQSPVTVIYSSDKRPSGIPERFSGSSSGSTATLTISGTQAMDEADYYCGGYDGSTDVGIFGGGTKLTVL",binding result,[8],binds
"589-VH_1 + 589-VL_2 (antibody, V domains shown) VH: QVQLLESGGGLVKPGGSLRLSCAASGFTFSDYDMFWIRQAPGKGLEWVSVINRSGSYTNYAPAVKGRFTISRDNAKNSLYLQMNSLRAEDTAVYYCARGACTHCWDADSAGYIDAWGQGTLVTVSS VL: SLELTQPPSVSVSPGQTASITCSGSSGSYGWHQQKPGQSPVTVIYSSDKRPSGIPERFSGSSSGSTATLTISGTQAMDEADYYCGGYDGSTDVGIFGGGTKLTVL",binding result,[8],binds
